The values that follow come from patent US20130097734A1.

Common to all, as to experiment: cell-based or functional assay
Experiment [1] deals with T1, AVR3a homolog from Phytophthora palmivora designated as L3B (Phytophthora palmivora).
T1 sequence: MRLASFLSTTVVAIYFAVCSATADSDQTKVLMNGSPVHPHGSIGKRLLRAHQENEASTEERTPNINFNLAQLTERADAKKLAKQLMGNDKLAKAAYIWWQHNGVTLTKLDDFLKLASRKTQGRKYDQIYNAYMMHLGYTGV

In experiment [2] the target is T2, AVR3a homolog from Phytophthora palmivora designated as L6B (Phytophthora palmivora).
T2 sequence: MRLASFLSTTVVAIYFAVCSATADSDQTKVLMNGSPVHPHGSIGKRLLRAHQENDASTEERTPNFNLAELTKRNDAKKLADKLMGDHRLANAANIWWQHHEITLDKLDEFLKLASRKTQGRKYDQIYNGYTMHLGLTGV

Experiment [3] concerns the target T3, AVR3a homolog from Phytophthora palmivora designated as L7B (Phytophthora palmivora).
T3 sequence: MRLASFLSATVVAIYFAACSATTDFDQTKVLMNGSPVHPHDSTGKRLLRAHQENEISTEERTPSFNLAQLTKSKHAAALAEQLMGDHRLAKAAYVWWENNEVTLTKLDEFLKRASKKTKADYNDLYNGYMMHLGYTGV

The target in experiment [4] is AVR3a^KI effector protein of Phytophthora infestans (Phytophthora infestans) (UniProt Q572D3).

B1: wild-type R3a protein (protein)
chain: MEIGLAVGGAFLSSALNVLFDRLAPHGDLLNMFQKHKDHVKLLKKLEDILLGLQIVLSDAENKQASNRHVSQWFNKLQNAVDGAENLIEQVNYEALRLKVEGQHQNLAETSNQQVSDLNLCFSDDFFLNIKDKLEETIETLEVLEKQIGRLGLKEHFGSTKQETRTPSTSLVDDSDIFGRQNDIEDLIDRLLSEDASGKKRTVVPIVGMGGLGKTTLAKAVYNDERVQIHFGLKAWFCVSEAFDAFRITKGLLQEIGSFDLKADDNLNQLQVKLKERLKGKKFLIVLDDVWNDNYNKWDELRNVFVQGDIGSKIIVTTRKESVALMMGNEQISMDNLSTESSWSLFKTHAFENMGPMGHPELEEVGKQIAAKCKGLPLALKTLAGMLRSKSEVEEWKRILRSEIWELPHNDILPALMLSYNDLPAHLKRCFSFCAIFPKDYPFRKEQVIHLWIANGLVPQEDVIIEDSGNQYFLELRSRSLFERVPNPSQGNTENLFLMHDLVNDLAQIASSKLCIRLEESQGSHMLEQSQHLSYSMGYGGEFEKLTPLYKLEQLRTLLPTCIDLPDCCHHLSKRVLHNILPRLTSLRALSLSCYEIVELPNDLFIKLKLLRFLDISRTEIKRLPDSICALYNLETLLLSSCYDLEELPLQMEKLINLRHLDISNTRLLKMPLHLSKLKSLQVLVGAKFLIGGLRMEDLGEVHNLYGSLSVVELQNVVDRREAVKAKMREKNHVDRLYLEWSGSSSADNSQTERDILDELRPHKNIKVVKITGYRGTNFPNWLADPLFLKLVKLSLRNCKNCYSLPALGQLPFLKFLSIREMHGITEVTEEFYGSWSSKKPFNCLEKLEFKDMPEWKQWDLLGSGEFPILEKLLIENCPELSLETVPIQLSSLKSFDVIGSPLVINFPLSILPTTLKRIKISDCQKLKLEQPTGEISMFLEELTLIKCDCIDDISPELLPRARKLWVQDWHNLTRFLIPTATETLDIWNCENVEILSVACGGTQMTSLTIAYCKKLKWLPERMQELLPSLKELHLSNCPEIESFPEGGLPFNLQQLAIRYCKKLVNGRKEWHLQRRLCLTALIIYHDGSDEEIVGGENWELPSSIQRLTIVNLKTLSSQHLKNLTSLQYLFIRGNLPQIQPMLEQGQCSHLTSLQSLQISSLQSLPESALPSSLSHLEISHCPNLQSLPESALPSSLSQLTINNCPNLQSLSESTLPSSLSQLEISFCPNLQYLPLKGMPSSLSELSIYKCPLLKPQLEFDKGEYWPNIAQFPTIKIDRECM
In experiment [1], B1 returned a Cell death/HR intensity, pBIN::35S-R3a, 1dpi of 0; a Cell death/HR intensity, pBIN::35S-R3a, 2dpi of 1; a Cell death/HR intensity, pBIN::35S-R3a, 3dpi of 2; a Cell death/HR intensity, pVnt1-R3a, 1dpi of 0. In experiment [1], the Cell death/HR intensity, pVnt1-R3a, 2dpi was 0 and the Cell death/HR intensity, pVnt1-R3a, 3dpi worked out at 0. In experiment [2], this molecule yielded a Cell death/HR intensity, pBIN::35S-R3a, 1dpi of 0; a Cell death/HR intensity, pBIN::35S-R3a, 2dpi of 0; a Cell death/HR intensity, pBIN::35S-R3a, 3dpi of 0; a Cell death/HR intensity, pVnt1-R3a, 1dpi of 0. In experiment [2], this molecule returned a Cell death/HR intensity, pVnt1-R3a, 2dpi of 0 and a Cell death/HR intensity, pVnt1-R3a, 3dpi of 0. Also, in experiment [3], the Cell death/HR intensity, pBIN::35S-R3a, 1dpi was found to be 0; the Cell death/HR intensity, pBIN::35S-R3a, 2dpi worked out at 1; the Cell death/HR intensity, pBIN::35S-R3a, 3dpi stood at 1; the Cell death/HR intensity, pVnt1-R3a, 1dpi stood at 0. In experiment [3], the Cell death/HR intensity, pVnt1-R3a, 2dpi worked out at 1 and the Cell death/HR intensity, pVnt1-R3a, 3dpi stood at 1. In experiment [4], the Cell death/HR intensity, pBIN::35S-R3a, 1dpi came to 1; the Cell death/HR intensity, pBIN::35S-R3a, 2dpi was found to be 1; the Cell death/HR intensity, pBIN::35S-R3a, 3dpi was determined as 2; the Cell death/HR intensity, pVnt1-R3a, 1dpi came to 2. In experiment [4], the Cell death/HR intensity, pVnt1-R3a, 2dpi is 3 and the Cell death/HR intensity, pVnt1-R3a, 3dpi amounted to 4.
